These results are taken from patent US8697062B2, “Compositions and methods for ribonuclease-based therapeutics” (Quintessence Biosciences, Inc., priority 2007, dated 2014).

Series [1] has as its system DU145 human prostate cancer cells. The series is described as follows: xenograft model of prostate cancer (DU145) in nude mice. Type of series: in vivo. The method, then:
Prostate cancer cells (DU145) were implanted into the right rear flank of 5-6 week old male homozygous (nu/nu) nude mice (Harlan). Tumors were allowed to grow to an average size of ≧75 mm^3 before treatments were initiated. Animals of each tumor type, with the properly-sized tumors, were divided into treatment groups. All the test compounds were diluted in PBS (drug vehicle), and one set of animals treated with vehicle (PBS) on the schedule with greatest frequency in the current study served as the negative control. All RNase treatments in the xenograft model are administered by intraperitoneal injection. Treatment with all agents is ongoing throughout the entire experiment (e.g., a 6 week long experiment with 1×wk dosing results in 6 total doses). Tumors were measured twice weekly using calipers. Tumor volume (mm^3) was determined by using the equation 4. The percent tumor growth inhibition was calculated using equation 5.

For series [2], the system named is A549 lung carcinoma cells. Briefly: xenograft model of non-small cell lung cancer (A549) in nude mice. The note with it: FIG. 9. Type of series: in vivo. The method, then: Cells from a non-small cell lung cancer cell line (A549) were grown in nine T175 flasks in F12K media and 10% fetal calf serum until the cells were confluent. 4.5×10^6 cells ([…]) were injected into the right rear flank of 4-5 week old male homozygous (nu/nu) nude mice (Harlan, Madison Wis.). Tumors were allowed to grow to an average size of ≧75 mm^3 before treatments were initiated. Animals of each tumor type, with the properly-sized tumors, were divided into treatment groups, including one set of animals treated weekly with vehicle (phosphate buffered saline, PBS). The vehicle and the test agents were all administered by intraperitoneal injection. Each animal was weighed twice a week during treatment. The tumors were measured twice weekly using calipers. Tumor volume (mm^3) was determined by using the formula for an ellipsoid sphere:
[formula] The percent tumor growth inhibition was calculated using the formula:
[formula] […] The efficacy is similar to that of an approved cancer drug, cisplatin.

For the next series, the target named is T1, human RI (Homo sapiens, UniProt P13489).
T1 sequence (P13489 whole entry, looked up): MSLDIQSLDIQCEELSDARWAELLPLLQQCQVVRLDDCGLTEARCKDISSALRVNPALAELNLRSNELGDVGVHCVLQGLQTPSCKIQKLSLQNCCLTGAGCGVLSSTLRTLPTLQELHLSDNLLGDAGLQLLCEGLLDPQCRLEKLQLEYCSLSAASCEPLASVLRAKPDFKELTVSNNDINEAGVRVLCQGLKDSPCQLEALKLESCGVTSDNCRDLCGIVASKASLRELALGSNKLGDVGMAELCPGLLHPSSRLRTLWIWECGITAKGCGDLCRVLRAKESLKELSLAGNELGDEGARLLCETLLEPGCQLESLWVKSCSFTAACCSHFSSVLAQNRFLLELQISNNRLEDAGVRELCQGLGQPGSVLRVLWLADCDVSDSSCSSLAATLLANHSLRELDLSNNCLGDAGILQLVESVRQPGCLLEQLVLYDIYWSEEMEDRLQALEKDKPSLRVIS
The series is described as follows: Kd^c | nM. The method, then:
Table printed on a drawing sheet, FIGURE 2
Head of the field: Kd^c | nM
Footnotes: ^aValues of Tm (± 2 °C) were determined in PBS by UV spectroscopy. The Tm values for G88R RNase and ONC in PBS are from Leland et al. (1998, Proc. Natl. Acad. Sci. 98:10407-10412). / ^bValues of kcat/KM (± SE) are for the catalysis of 6-FAM~dArU(dA)2~6-TAMRA cleavage at room temperature in 0.10 M MES-NaOH buffer (pH 6.0) containing NaCl (0.10 M) except for the kcat/KM (± SE) of ONC . The kcat/KM value for ONC is for the catalysis of 6-FAM~dArUdGdA~6-TAMRA cleavage at room temperature in 0.020 M MES-NaOH buffer (pH 6.0) containing NaCl (0.010 M). / ^cValues of Kd (± SE) are for the complex with human RI at room temperature. The Kd value for RNase A is from Lee et al. (1989, Biochem. 28:225-230). The Kd value for G88R RNase A is from Lavis et al. (2007, Anal. Biochem. 79:6775-6782). The Kd value for ONC is an estimate from Wu et al. (1993, J. Biol. Chem. 268:10686-10693). / ^dValues of IC50 (± SE) are for incorporation of [methyl-^3H]thymidine into the DNA of K-562 cells. […]
First copying reader's note: The table body is printed very coarsely, so many digits are uncertain; the mark ^h in the (kcat/KM)cyto column has no footnote on the sheet, and the IC50 footnote is lettered d.
Where the first naming reader finds the target: footnote: Values of Kd (± SE) are for the complex with human RI at room temperature.

The next series concerns the target T2, hRI (Homo sapiens, UniProt P13489).
T2 sequence (P13489 1-461): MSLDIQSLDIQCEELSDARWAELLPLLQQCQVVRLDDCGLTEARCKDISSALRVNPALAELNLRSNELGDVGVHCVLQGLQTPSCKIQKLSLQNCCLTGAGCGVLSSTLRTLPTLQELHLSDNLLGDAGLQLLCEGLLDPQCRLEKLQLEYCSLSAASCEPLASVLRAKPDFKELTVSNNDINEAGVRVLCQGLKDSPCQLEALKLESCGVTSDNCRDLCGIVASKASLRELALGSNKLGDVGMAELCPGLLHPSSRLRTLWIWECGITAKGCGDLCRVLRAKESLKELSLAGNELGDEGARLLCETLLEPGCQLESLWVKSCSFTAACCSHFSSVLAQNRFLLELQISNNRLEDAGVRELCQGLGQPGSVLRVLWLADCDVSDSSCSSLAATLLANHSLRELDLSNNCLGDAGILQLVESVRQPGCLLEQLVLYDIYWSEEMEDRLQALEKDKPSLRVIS
The note with it: value used as basis of the competition assay; Rutkoski et al., 2005; cited from earlier work.

For `CC(=O)O[C@@]12CO[C@@H]1C[C@H](O)[C@@]1(C)C(=O)[C@H](O)C3=C(C)[C@@H](OC(=O)[C@H](O)[C@@H](NC(=O)OC(C)(C)C)c4ccccc4)C[C@@](O)([C@@H](OC(=O)c4ccccc4)[C@H]21)C3(C)C` [docetaxel, reference compound], in series [1] (8 mg/kg weekly, compared to a control, FIG. 5), the tumor volume entry is on record as “decrease tumor volumes to similar levels”. For `N.N.[Cl][Pt][Cl]` [cisplatin, reference compound], the “efficacy in reducing tumor volume” value in series [2] (6 mg/kg weekly, compared with 60 kDa mPEG2 G89C RNase 1) is on record as “similar”.

B1: 20 kDa mPEG2-G88C RNase A: G88C RNase A modified with 20 kDa-mPEG2 maleimide (branched) (conjugate, UniProt P61823 27-150, looked up, variant G88C)
Ribonuclease pancreatic: KETAAAKFERQHMDSSTSAASSSNYCNQMMKSRNLTKDRCKPVNTFVHESLADVQAVCSQKNVACKNGQTNCYQSYSTMSITDCRETCSSKYPNCAYKTTQANKHIIVACEGNPYVPVHFDASV
modifications: 20 kDa branched mPEG2 maleimide
In the series with human RI, B1 had a Kd of 37 ± 2.4 nM. In addition, the tumor volume result in series [1] (75 mg/kg, 1 time per week, intraperitoneal, FIG. 5) is given as “reduce tumor volumes”.

B2: 2 kDa mPEG-G88C RNase A: G88C RNase A modified with 2 kDa-mPEG maleimide (conjugate, UniProt P61823 27-150, looked up, variant G88C)
Ribonuclease pancreatic: KETAAAKFERQHMDSSTSAASSSNYCNQMMKSRNLTKDRCKPVNTFVHESLADVQAVCSQKNVACKNGQTNCYQSYSTMSITDCRETCSSKYPNCAYKTTQANKHIIVACEGNPYVPVHFDASV
modifications: 2 kDa mPEG maleimide
notes: G88C RNase A modified with 2 kDa-mPEG maleimide
B2: the “toxicity of the treatment as reflected by average body weight” value in series [1] (15 mg/kg twice weekly, intraperitoneal, FIG. 4B) was “lack of toxicity”. Besides, the tumor volume entry in series [1] (15 mg/kg, 2 times per week, intraperitoneal, FIG. 4) is listed as “reduction in tumor volume over time”; in series [1] (15 mg/kg, 2 times per week, intraperitoneal, FIG. 4, listed as 2 kDa mPEG G88C RNase A) it was “reduce tumor volumes”.

B3: fluorophore-labeled G88R variant of RNase A: fluorophore-labeled G88R variant of RNase A used as probe in the ribonuclease-inhibitor binding assay (conjugate, UniProt P61823 27-150, looked up, variant G88R)
Ribonuclease pancreatic: KETAAAKFERQHMDSSTSAASSSNYCNQMMKSRNLTKDRCKPVNTFVHESLADVQAVCSQKNVACKNGQTNCYQSYSTMSITDCRETRSSKYPNCAYKTTQANKHIIVACEGNPYVPVHFDASV
modifications: fluorophore label
In the case of B3, the Kd in the series with hRI was 1.4 nM.

B4: 60 kDa mPEG2-G89C RNase 1: G89C RNase 1 modified with 60 kDa-mPEG2 maleimide (branched) (conjugate, UniProt P07998 29-156, looked up, variant G89C)
Ribonuclease pancreatic: KESRAKKFQRQHMDSDSSPSSSSTYCNQMMRRRNMTQGRCKPVNTFVHEPLVDVQNVCFQEKVTCKNGQGNCYKSNSSMHITDCRLTNCSRYPNCAYRTSPKERHIIVACEGSPYVPVHFDASVEDST
modifications: 60 kDa branched mPEG2 maleimide
In the case of B4, the tumor volume result in series [2] (75 mg/kg weekly, intraperitoneal, versus control) is “decreases tumor volume”.
